Assay: yeast display, Sf9 membrane polyspecificity reagent, FACS + sequencing; frameworks hold sequencing errors
Procedure, shortened: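 Galactose induction of a Saccharomyces cerevisiae BJ5465 synthetic nanobody display library ran 36–48 hours. The cells were then stained for 1 hour at 4 °C with 10% biotinylated, detergent-solubilized Sf9 membrane reagent, pulled down on streptavidin microbeads and FACS-sorted into low and high (top ~1%) gates on expression and reagent-binding fluorescence. Labels for polyreactivity follow the gate of origin.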

Row | Sequence | polyreactivity (PSR sort gate)
1 | QVQLVESGGGLVQAGGSLRLSCAASGRTFQTNAMGWYRQAPGKERELVAAISSTGGSTYYADSVKGRFTISRDNAKNTVYLQMNRLKPEDTAVYYCNAGRTYRYDYWGQGTQVTVSS | high polyreactivity
2 | QVQLVESGGGLVQAGGSLRLSCAASGSTFDKYAMGWYRQAPGKERELVATISQSGASTYYADSVKGRFTISRDNAKNTVYFQMNSLKPEDTAVYYCAAAGGEQTKDYYYWGQGTQVTVSS | high polyreactivity
3 | QVQLVESGGGLVQAGGSLRLSCAASGRTFPYNAMGWSRQAPGKERELVAVISSGGGRTYYADSVKGRFTISRDNAKNTVYLQMNSLKPEDTAVYYCNKGGYAIRYDYYWGQGTQVTVSS | high polyreactivity
4 | QVQLVESGGGLVQAGGSLRLSCAASGSIFVAYTMGWYRQAPGKERELVAAISRGGSTNYADSVKGRFTISRDNAKNTVDLQMNSLKPEDTAVYYCAAKVWDGQLLYYWGQGTQVTVSS | low polyreactivity
5 | QVQLVESGGGVVHAGGSLRLSCAASGLIFRYYAVGGYRPAPGKERELVARISTRGGSTYYADSVKGRFTISRDNAKNTVYLPMNSLKPEDTAVYYCAAVNGLYYHKYGYYWGQGTQVTVSS | high polyreactivity
6 | QVQLVESGGGLVQAGGSLRLSCAASGRIFGHYAMGWYRQAPGKERELVAAITIGGSTYYADSVKGRFTISRDNAKNTVYLQMNSLKPEDTAVYYCAKVGSNYRGRLGYWGQGTQVNVSS | low polyreactivity
7 | QFQLVESGGGLDQAGGSLRLSCAASGFIFSWYAMGWYRQAPGKERELVAAINWSGGSTYYADSVKGRFTISRDNAKNTVYLQMNSLKPEDTAVYYCAAVRQSQFEYWGQGTQVTVSS | high polyreactivity
8 | QVQLVESGGGLVQAGGSLRLICAASGRTFQYYAMGWYRQAPGKERELVAAITSGGSTYYADSVKGRFTISRDNAKNTVYLQMNSLKPEDTAVYYCAATFYYSGHDDYWGQGTQVTVSS | low polyreactivity
9 | QVQLVESVGGLDQAGGSLRLSCAASGFTFYTNAMGWYRQAPGKEREFVAAISWSGTGTYYADSVKGRFTISRDNAKNTVYLQMYSLIPDDTAVYYCAARDRWRGGRKFDYWGQGTQVTVSS | high polyreactivity
10 | QVQLVESGGGLVQAGGSLRLSCAASGLIFPSYTMGSYRQAPGKERELVAAITFSGDSTNYADSVKGRFTISRDNAKNTVYLQMNSLKPEDTAVYYCAAETITYGFDGDYWGQGTQVTVSS | low polyreactivity
11 | QVQLVESGGCLVQAGGSLRLSCAASGRTFDINDMGWYRQAPGKEREFVAAIDRSGGNTYYADSVKGRFIISRDNAKNTVYLQMNSLKPEDTAVYYCAADSPYVVAWPYVWYFTFDYWGQGTQVTVTS | low polyreactivity
12 | QVQLVESGGGLVQAGGSLRLSCAASGFTFDENAMGWYRQAPGINYSGASTYYAVSVKGRFTIARDNAKNTVYLQMNSLKPEDTAVYYCAAEVLAQMNYWGQGTQVTVSS | low polyreactivity
13 | QVQLVESGGGLVQAGGSLRLSCAASGSTFTKYAMGWYRQAPGKERELVAAITASGGNTYYADSVKGRFTISRDNAKKTVYLQMNSLKPEDTAVYYCAARQYRYKYDYWGQGTQVTVSS | high polyreactivity
14 | QVQLVESGGGLVQAGGSLRLSCAASGLIFVNAMGWYRQAPGKEREFVAAITYSTGSTYYADSVKGRFTISRDNAKNTVYLQMNSLKPEDTAVYYCAKDRSGHGTERDYWGQGTQVTVSS | low polyreactivity
15 | QVQLVESGGGLVQAGGSLRLSCAASGYIFQPYAMGWYRQAPGKERELVAAIDWTGGRTYYADSVKGRFTISRDNAKNTVYLQMNSLKPEVTAVYYCNADFGYWWDGRRYDYWGQGTQVTVSS | low polyreactivity
16 | QVQLVESGGGLVQAGGSLRLSCAASGSNFDSYAMGWYRQAPGKERVLVAAITRSSVSTYYADSVKGRFTISRDNAKYTVYLQMNSLKPEDTAVYYCAAEDEWSLLYLWFGEYDYWGQGTQVTVSS | low polyreactivity

Row | Sequence | polyreactivity (PSR sort gate)
17 | QVQLVESGGGLVQAGGSLRLSCAASGFIFSFYVMGWYRQAPGKERELVAAISTSGASTYYADSVKGRFTISRDNAKNTVYLQMTSLKPEDTAVYYCNVVYRYGGYNYWGQGTQVTVSS | high polyreactivity
18 | QVQLQESGGGLVQAGGSLRLSCAASGTITFAAYMGWYRQAPGKEREYVASIGYGATTYYADSEKGRFTISRDNANNTVYLPMNSLKPGDTAVYYCAVDRSPQYRYLYYWGQGTQVTVCS | high polyreactivity
19 | QVHLVESGGGLVKAGGSLRLSCAASGSTFYANAMGWYRQAPGKEREFVASITWSGGSTYYADSVKGRFTISRDNAKNTVYLQMNSLKPEDTSVYYCAANIGHNGFDYWGQGTQVNVSS | low polyreactivity
20 | QVQLVESGGGLVQAVASIRLSCAASGITIYLYAKGWSRQAPGKARELVATITSRSGSTYYADSVKGRFTISRDNAKNTVYLQMNSLKPEDTAVYYCAAKYPRYLYGYWGQGTQVTVSS | high polyreactivity
21 | QVQLVESGGGLVQAGGSLRLSCAASGLTFAINTMGLNRQAPGKESELVAAITGSGGSTYYADSVKGRFTISRDNAKYTVYLQMKSLKPEDTAVYYCAAELLYVQGYAMDFWGQGTQVTVSS | low polyreactivity
22 | QVQLVESGGGLVQAGGSLRLSCAASGRTFYYYAMGWYIQAPGKERELVATITKSSGSTSYADSVKGRFTISRDNAKNTVYLQMNSLKPEDTAVYYCAKVFRSGGVYRYDYWGQGTQVTVSS | high polyreactivity
23 | QVQLVESGGGLVQAGGSLRLSCAASGRTFGSYAMGWYRQAPGKERELVAAITWSGTGTYYADSVKGRFTISRDNAKNTVYLQMNSLKPEDTAVYYCNTDRWYAYDWGQGTQVTVSS | high polyreactivity
24 | QVQLVESGGGLVQAGGSLRLRCAASGSTSPFNAMGWYRQAPGKERELVASITSSGSTNYADSVKGRFTISRDNAKNTVYLQINSLKPEDTAVYYCASEGVVSETFYAYWGQGTQVTVSS | low polyreactivity
25 | QVQLVESGGGLVQAGGSLRLTCAASGRTLAKNAMGWYRQAPGKERELVAAISRRGGSTYYADSVKGRFTISRDNAKNTVYLQMNSLKPEDTAVYYCARASRQGYYQLSYDEFDYWGQGTQVTVSS | high polyreactivity
26 | QVQLVESGGGLVQAGGSLRLSCAASGRIFSFSAMGWYRQAPGKERELVAAISYSGGRTYYADSGKGRFTISRDNAKNTVYLQMNSLKPDDTAVYDCNAGRVLRLAYNYWGQGTQVTVSS | low polyreactivity
27 | QVQLVESGGGLVQAGGSLRLSCAASGYTFNRYAMGWYRQAPGKERELVAAISKRGGSTNYADSVKGRFTISRDNAKNTVYLQMNSLKPEDTAVYYCAKRWRSYSRGGDYWGQGTQVTVSS | high polyreactivity
28 | QVQLVESGGGLVQAGGSLRLTCAASARTFFRNTMGSYRQATGKERELVATISWSGGSTNSADSVKGRFTISRDNAKNTVSLQMNSLKPEDTAVYYCAAVDYDTSIYDRPGGFDYWGQGTQVTVSS | low polyreactivity
29 | QVQLVESGGCLVQAGGSLRLSCAASGSTFDINAMGWYRQAPGKESELVASITFSGGSTYYADSVKGRFTISRDNAKNTVYLQMNSLKPEDTAVYYCAADSSGEYPGGYWGQGTQVTVTS | low polyreactivity
30 | QVQLVESGGGLVQAGGSLRLSCAASGRIFAGYVMGWYRQAPGKERELVAAISGSGASTYYADSVKGRFTISRDNAKNTVYLQMNSLKPEDTAVYYCAADKPGIFSRFDYWGQGTQVTVSS | low polyreactivity
31 | QVKLVESGGALVQAGGSLRLSCAASGSTFGWYAMGRYRQAPGKERELVAGISSGGASTYYADSVKGRFTISRDNAKNTFYLQMNSLKPEDSAVYYCAKDQIFRGYKTKFGYWGQGTQLTVSS | low polyreactivity
32 | QVQLVESGGGLVQAGGSLRLSCAASGIIFQRNDMGWYRQAPGKERELVANIRDGGITYADSVKGRFTISRDNAKNTVYLQMNSLKPEDTAVYYCARDDTSPGYGDQSSNAAYYYWGQGTQVTVSS | low polyreactivity

From the nanobody polyreactivity screen of Harvey et al. (2022)
